Residue numbers refer to the chain shown, from its start. Values belong to the binder of their own block, whether it stands above or below them.
What was measured:
Experiment in all cases: holdup assay
Set-up in all cases: key: below the threshold = too weak to quantify, mostly under pKd 3.1 to 4
[1] = target: PDLIM1, O00151
[2] = target: T1, APBA2_2, Q99767
T1 sequence (Q99767 654-744, limits assumed, looked up): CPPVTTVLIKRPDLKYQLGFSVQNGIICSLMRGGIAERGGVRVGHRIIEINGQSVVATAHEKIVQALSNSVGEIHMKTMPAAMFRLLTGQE

[3] = target: LNX1_2, Q8TBB1
[4] = target: MAGI2_2, Q86UL8
[5] = target: T2, LNX2_3, Q8N448
T2 sequence (Q8N448 463-564, limits assumed, looked up): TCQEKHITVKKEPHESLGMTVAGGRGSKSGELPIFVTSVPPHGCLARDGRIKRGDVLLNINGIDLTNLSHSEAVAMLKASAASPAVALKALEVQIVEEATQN

[6] = target: NHERF4_4, Q86UT5
[7] = target: NHERF4_2, Q86UT5
[8] = target: T3, LNX2_2, Q8N448
T3 sequence (Q8N448 334-432, limits assumed, looked up): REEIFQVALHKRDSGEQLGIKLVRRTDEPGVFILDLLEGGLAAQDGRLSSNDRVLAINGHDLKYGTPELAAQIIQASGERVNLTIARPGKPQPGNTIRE

[9] = target: T4, APBA2_1, Q99767
T4 sequence (Q99767 563-664, limits assumed, looked up): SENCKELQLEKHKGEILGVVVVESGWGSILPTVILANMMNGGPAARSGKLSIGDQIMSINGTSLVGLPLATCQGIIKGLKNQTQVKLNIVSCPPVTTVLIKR

[10] = target: T5, APBA1_1, Q02410
T5 sequence (Q02410 651-752, limits assumed, looked up): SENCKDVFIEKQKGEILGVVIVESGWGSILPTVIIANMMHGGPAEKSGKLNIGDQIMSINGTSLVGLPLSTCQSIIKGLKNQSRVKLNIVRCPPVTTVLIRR

[11] = target: GRIP2_4, Q9C0E4
[12] = target: T6, LIN7C, Q9NUP9
T6 sequence (Q9NUP9 88-185, limits assumed, looked up): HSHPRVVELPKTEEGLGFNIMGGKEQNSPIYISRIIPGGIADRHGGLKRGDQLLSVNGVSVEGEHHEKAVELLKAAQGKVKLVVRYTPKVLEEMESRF

[13] = target: DLG4_1, P78352
[14] = target: T7, DVL3, Q92997
T7 sequence (Q92997 244-331, limits assumed, looked up): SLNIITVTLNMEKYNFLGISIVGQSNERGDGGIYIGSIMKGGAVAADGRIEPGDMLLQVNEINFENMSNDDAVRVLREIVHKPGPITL

[15] = target: T8, APBA1_2, Q02410
T8 sequence (Q02410 742-832, limits assumed, looked up): T1 sequence (Q99767 654-744, limits assumed, looked up) with K10R, K15R, A59P, Q65H, A66I, S70A, F84Y, G89A

[16] = target: T9, SNTA1, Q13424
T9 sequence (Q13424 82-180, limits assumed, looked up): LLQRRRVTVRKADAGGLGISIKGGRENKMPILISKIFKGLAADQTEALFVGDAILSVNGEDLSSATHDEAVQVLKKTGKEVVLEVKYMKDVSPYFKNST

[17] = target: Inadl_4, Q8NI35
[18] = target: T10, HTRA3, P83110
T10 sequence (P83110 354-453, limits assumed, looked up): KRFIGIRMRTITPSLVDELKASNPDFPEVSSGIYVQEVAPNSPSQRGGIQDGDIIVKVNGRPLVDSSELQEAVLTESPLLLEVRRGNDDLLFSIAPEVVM

[19] = target: T11, GRIP1_4, Q9Y3R0
T11 sequence (Q9Y3R0 467-571, limits assumed, looked up): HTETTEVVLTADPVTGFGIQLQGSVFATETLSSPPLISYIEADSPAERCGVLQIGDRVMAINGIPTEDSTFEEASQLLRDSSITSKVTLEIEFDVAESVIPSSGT

[20] = target: SCRIB_1, Q14160
[21] = target: GRID2IP_1, A4D2P6
[22] = target: T12, MPDZ_10, O75970
T12 sequence (O75970 1624-1722, limits assumed, looked up): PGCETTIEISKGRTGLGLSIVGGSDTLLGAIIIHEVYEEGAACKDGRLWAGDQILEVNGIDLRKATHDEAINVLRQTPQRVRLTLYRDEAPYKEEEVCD

[23] = target: FRMPD2_3, Q68DX3
[24] = target: T13, NHERF3_3, Q5T2W1
T13 sequence (Q5T2W1 238-333, limits assumed, looked up): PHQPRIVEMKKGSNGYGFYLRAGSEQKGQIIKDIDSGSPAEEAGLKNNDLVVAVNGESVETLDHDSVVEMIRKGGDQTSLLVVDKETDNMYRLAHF

[25] = target: LNX1_3, Q8TBB1
[26] = plain residues with an end cap or a label only (N-terminal biotin on a linker: ado-ado)
[27] = modified: phospho on T at position -1 from the C-terminal residue
[28] = modified: phospho on T at position -2 from the C-terminal residue

GRIP2_4, Q9C0E4, sequence (Q9C0E4 446-548): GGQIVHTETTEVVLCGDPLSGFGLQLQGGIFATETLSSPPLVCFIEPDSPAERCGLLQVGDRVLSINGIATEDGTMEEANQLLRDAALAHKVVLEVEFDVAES
PDLIM1, O00151, sequence (O00151 1-87): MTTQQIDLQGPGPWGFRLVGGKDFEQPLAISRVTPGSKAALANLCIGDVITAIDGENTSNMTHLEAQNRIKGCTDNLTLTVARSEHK
NHERF4_2, Q86UT5, sequence (Q86UT5 220-308): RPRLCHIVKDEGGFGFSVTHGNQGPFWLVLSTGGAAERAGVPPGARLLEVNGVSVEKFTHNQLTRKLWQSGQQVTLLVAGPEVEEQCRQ
MAGI2_2, Q86UL8, sequence (Q86UL8 410-522): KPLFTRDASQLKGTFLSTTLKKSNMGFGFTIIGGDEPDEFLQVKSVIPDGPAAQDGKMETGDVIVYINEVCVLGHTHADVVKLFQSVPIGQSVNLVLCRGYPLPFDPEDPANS
LNX1_2, Q8TBB1, sequence (Q8TBB1 371-470): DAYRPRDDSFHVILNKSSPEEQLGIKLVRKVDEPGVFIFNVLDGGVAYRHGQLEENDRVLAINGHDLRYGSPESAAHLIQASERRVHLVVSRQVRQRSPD
NHERF4_4, Q86UT5, sequence (Q86UT5 464-550): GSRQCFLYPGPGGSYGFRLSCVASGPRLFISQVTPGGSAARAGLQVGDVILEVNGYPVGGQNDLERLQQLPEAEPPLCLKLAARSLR
Inadl_4, Q8NI35, sequence (Q8NI35 547-651): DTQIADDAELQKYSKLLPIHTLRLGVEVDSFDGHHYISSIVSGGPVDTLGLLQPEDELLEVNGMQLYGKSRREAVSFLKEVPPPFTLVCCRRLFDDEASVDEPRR
LNX1_3, Q8TBB1, sequence (Q8TBB1 500-596): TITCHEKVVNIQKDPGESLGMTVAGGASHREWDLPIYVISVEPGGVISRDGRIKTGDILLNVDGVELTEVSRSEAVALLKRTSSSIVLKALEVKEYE
FRMPD2_3, Q68DX3, sequence (Q68DX3 1073-1166): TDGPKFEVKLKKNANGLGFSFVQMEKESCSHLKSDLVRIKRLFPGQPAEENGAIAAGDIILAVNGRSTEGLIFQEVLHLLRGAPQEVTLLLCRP
SCRIB_1, Q14160, sequence (Q14160 718-814): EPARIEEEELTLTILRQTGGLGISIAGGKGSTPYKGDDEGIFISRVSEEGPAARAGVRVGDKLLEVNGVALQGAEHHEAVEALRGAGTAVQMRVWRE
GRID2IP_1, A4D2P6, sequence (A4D2P6 1-87): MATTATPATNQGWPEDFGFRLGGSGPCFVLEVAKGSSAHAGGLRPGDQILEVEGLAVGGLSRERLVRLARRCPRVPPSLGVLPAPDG
DLG4_1, P78352, sequence (P78352 62-152): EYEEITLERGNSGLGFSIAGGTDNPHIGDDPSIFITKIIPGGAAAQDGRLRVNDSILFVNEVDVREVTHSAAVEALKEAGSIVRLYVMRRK

B4: AKIP1, Q9NQ31 (peptide)
chain: GQSVDLVFPV
pKd [1, 26]: below the threshold
pKd [2, 26]: below the threshold
pKd [3, 26]: 3.75
pKd [4, 26]: below the threshold
pKd [5, 26]: below the threshold
pKd [6, 26]: below the threshold
pKd [7, 26]: below the threshold
pKd [8, 26]: 3.87
pKd [9, 26]: 3.59
pKd [10, 26]: below the threshold
pKd [11, 26]: below the threshold
pKd [12, 26]: below the threshold
pKd [13, 26]: 3.6
pKd [14, 26]: below the threshold
pKd [15, 26]: 3.85
pKd [16, 26]: below the threshold
pKd [17, 26]: below the threshold
pKd [18, 26]: below the threshold
pKd [19, 26]: below the threshold
pKd [20, 26]: below the threshold
pKd [21, 26]: below the threshold
pKd [22, 26]: below the threshold
pKd [23, 26]: below the threshold
pKd [24, 26]: below the threshold
pKd [25, 26]: 3.96

B5: CACNG4, Q9UBN1 (peptide)
chain: SMLNRRTTPV
pKd [1, 26]: below the threshold
pKd [2, 26]: below the threshold
pKd [3, 26]: 3.75
pKd [4, 26]: 5.03
pKd [5, 26]: below the threshold
pKd [6, 26]: below the threshold
pKd [7, 26]: below the threshold
pKd [8, 26]: below the threshold
pKd [9, 26]: below the threshold
pKd [10, 26]: below the threshold
pKd [11, 26]: below the threshold
pKd [12, 26]: below the threshold
pKd [13, 26]: 4.51
pKd [14, 26]: below the threshold
pKd [15, 26]: 3.73
pKd [16, 26]: 3.86
pKd [17, 26]: below the threshold
pKd [18, 26]: below the threshold
pKd [19, 26]: below the threshold
pKd [20, 26]: 3.56
pKd [21, 26]: below the threshold
pKd [22, 26]: 3.92
pKd [23, 26]: below the threshold
pKd [24, 26]: below the threshold
pKd [25, 26]: below the threshold

Continued, values first:

pKd [1, 26]: below the threshold
pKd [2, 26]: below the threshold
pKd [3, 26]: below the threshold
pKd [4, 26]: below the threshold
pKd [5, 26]: below the threshold
pKd [6, 26]: below the threshold
pKd [7, 26]: below the threshold
pKd [8, 26]: below the threshold
pKd [9, 26]: below the threshold
pKd [10, 26]: below the threshold
pKd [11, 26]: below the threshold
pKd [12, 26]: below the threshold
pKd [13, 26]: below the threshold
pKd [14, 26]: below the threshold
pKd [15, 26]: below the threshold
pKd [16, 26]: below the threshold
pKd [17, 26]: below the threshold
pKd [18, 26]: below the threshold
pKd [19, 26]: below the threshold
pKd [20, 26]: below the threshold
pKd [21, 26]: below the threshold
pKd [22, 26]: below the threshold
pKd [23, 26]: below the threshold
pKd [24, 26]: below the threshold
pKd [25, 26]: below the threshold
B1: CTNNA2, P26232 (peptide)
chain: LSEFKAMDSF

pKd [1, 27]: 4
pKd [2, 27]: below the threshold
pKd [3, 27]: below the threshold
pKd [4, 27]: 3.92
pKd [5, 27]: below the threshold
pKd [6, 27]: below the threshold
pKd [7, 27]: below the threshold
pKd [8, 27]: below the threshold
pKd [9, 27]: below the threshold
pKd [10, 27]: 3.56
pKd [11, 27]: below the threshold
pKd [12, 27]: 3.56
pKd [13, 27]: 3.8
pKd [14, 27]: below the threshold
pKd [15, 27]: below the threshold
pKd [16, 27]: 3.85
pKd [17, 27]: below the threshold
pKd [18, 27]: 3.34
pKd [19, 27]: 3.36
pKd [20, 27]: 4.02
pKd [21, 27]: below the threshold
pKd [22, 27]: below the threshold
pKd [23, 27]: below the threshold
pKd [24, 27]: 3.36
pKd [25, 27]: 3.39
B2: RPS6KA1_-1P, Q15418 (peptide)
chain: RRVRKLPSTTL

pKd [1, 28]: below the threshold
pKd [2, 28]: below the threshold
pKd [3, 28]: below the threshold
pKd [4, 28]: below the threshold
pKd [5, 28]: below the threshold
pKd [6, 28]: below the threshold
pKd [7, 28]: below the threshold
pKd [8, 28]: below the threshold
pKd [9, 28]: below the threshold
pKd [10, 28]: below the threshold
pKd [11, 28]: below the threshold
pKd [12, 28]: below the threshold
pKd [13, 28]: below the threshold
pKd [14, 28]: below the threshold
pKd [15, 28]: below the threshold
pKd [16, 28]: below the threshold
pKd [17, 28]: below the threshold
pKd [18, 28]: below the threshold
pKd [19, 28]: below the threshold
pKd [20, 28]: below the threshold
pKd [21, 28]: below the threshold
pKd [22, 28]: below the threshold
pKd [23, 28]: below the threshold
pKd [24, 28]: below the threshold
pKd [25, 28]: below the threshold
B3: RPS6KA1_-2P, Q15418 (peptide)
chain: RRVRKLPSTTL
